Experiments:
Experiment in all cases: ELISA on coated his-tagged Fc receptor, anti-human-Fc HRP detection
[1] = target: his-tagged FcγRI protein (R&D Systems) (UniProt P12314 16-288)
[2] = target: T1, his-tagged FcγRIIa protein (R&D Systems) (UniProt P12318 36-218)
T1 sequence (looked up): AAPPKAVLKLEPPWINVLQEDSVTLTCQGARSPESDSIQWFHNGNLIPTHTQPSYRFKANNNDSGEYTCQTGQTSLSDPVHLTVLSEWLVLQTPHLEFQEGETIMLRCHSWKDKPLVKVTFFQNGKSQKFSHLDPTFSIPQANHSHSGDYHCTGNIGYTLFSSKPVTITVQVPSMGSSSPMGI

[3] = target: T2, his-tagged FcγRIIb protein (R&D Systems) (UniProt P31994 46-217)
T2 sequence (looked up): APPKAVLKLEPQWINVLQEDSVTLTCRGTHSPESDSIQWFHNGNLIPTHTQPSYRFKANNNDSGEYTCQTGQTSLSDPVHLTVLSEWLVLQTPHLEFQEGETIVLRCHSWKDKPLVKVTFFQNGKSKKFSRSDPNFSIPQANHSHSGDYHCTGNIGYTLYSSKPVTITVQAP

[4] = target: his-tagged FcRIIIa protein (R&D Systems) (UniProt P08637 17-208)
his-tagged FcRIIIa protein (R&D Systems), sequence (P08637 17-208 limits assumed): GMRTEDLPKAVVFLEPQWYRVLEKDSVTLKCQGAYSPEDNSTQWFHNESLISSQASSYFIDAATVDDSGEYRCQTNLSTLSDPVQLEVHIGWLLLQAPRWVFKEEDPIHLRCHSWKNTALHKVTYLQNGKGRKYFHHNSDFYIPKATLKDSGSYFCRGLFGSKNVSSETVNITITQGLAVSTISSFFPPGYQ

Measured: binding result

his-tagged FcγRI protein (R&D Systems), sequence (P12314 16-288 limits assumed): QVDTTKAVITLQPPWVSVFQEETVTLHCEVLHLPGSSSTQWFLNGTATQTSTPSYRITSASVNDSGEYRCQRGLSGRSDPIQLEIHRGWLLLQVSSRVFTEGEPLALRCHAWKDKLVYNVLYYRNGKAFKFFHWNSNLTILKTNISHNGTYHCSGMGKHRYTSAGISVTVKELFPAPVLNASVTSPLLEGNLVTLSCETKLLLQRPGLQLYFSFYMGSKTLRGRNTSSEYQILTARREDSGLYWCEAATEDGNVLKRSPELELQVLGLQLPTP

B1: ACE2-M1-FcKO (Fc fusion)
chain: STIEEQAKYFLDKFNHEAEDLFYQSSLASWNYNTNITEENVQNMNNAGDKWSAFLKEQSTYAQMYPLQEIQNLTVKLQLQALQQNGSSVLSEDKSKRLNTILNTMSTIYSTGKVCNPDNPQECLLLEPGLNEIMANSLDYNERLWAWESWRSEVGKQLRPLYEEYVVLKNEMARANHYEDYGDYWRGDYEVNGVDGYDYSRGQLIEDVEHTFEEIKPLYEHLHAYVRAKLMNAYPSYISPIGCLPAHLLGDMWGRFWTNLYSLTVPFGQKPNIDVTDAMVDQAWDAQRIFKEAEKFFVSVGLPNMTQGFWEYSMLTDPGNVQKAVCHPTAWDLGKGDFRILMCTKVTMDDFLTAHREMGRIQYDMAYAAQPFLLRNGANEGFHEAVGEIMSLSAATPKHLKSIGLLSPDFQEDNETEINFLLKQALTIVGTLPFTYMLEKWRWMVFKGEIPKDQWMKKWWEMKREIVGVVEPVPHDETYCDPASLFHVSNDYSFIRYYTRTLYQFQFQEALCQAAKHEGPLHKCDISNSTEAGQKLFNMLRLGKSEPWTLALENVVGAKNMNVRPLLNYFEPLFTWLKDQNKNSFVGWSTDWSPYADQSIKVRISLKSALGDKAYEWNDNEMYLFRSSVAYAMRQYFLKVKNQMILFGEEDVRVANLKPRISFNFFVTAPKNVSDIIPRTEVEKAIRMSRSRINDAFRLNDNSLEFLGIQPTLGPPNQPPVSSGGGGSGGGGSGGGGSEPKSSDKTHTCPPCPAPPVAGPSVFLFPPKPKDTLMISRTPEVTCVVVGVSHEDPEVKFNWYVDGVEVHNAKTKPREEQYNSTYRVVSVLTVLHQDWLNGKEYKCKVSNKQLPSPIEKTISKAKGQPGQPREPQVYTLPPSRDELTKNQVSLTCLVKGFYPSDIAVEWESNGQPENNYKTTPPVLDSDGSFFLYSKLTVDKSRWQQGNVFSCSVMHEALHNHYTQKSLSLSPGK
notes: also called M1 version
no binding: all assays above

— US20260102474A1 (DEUTSCHES KREBSFORSCHUNGSZENTRUM STIFTUNG DES FFENTLICHEN …, published 2026)
